Reference: patent US20170015742A1 (published 2017)

B1: CODV003 cross-over DVD-Ig (PR-1565044) (bispecific antibody, human IgG1, kappa, L234A L235A)
heavy: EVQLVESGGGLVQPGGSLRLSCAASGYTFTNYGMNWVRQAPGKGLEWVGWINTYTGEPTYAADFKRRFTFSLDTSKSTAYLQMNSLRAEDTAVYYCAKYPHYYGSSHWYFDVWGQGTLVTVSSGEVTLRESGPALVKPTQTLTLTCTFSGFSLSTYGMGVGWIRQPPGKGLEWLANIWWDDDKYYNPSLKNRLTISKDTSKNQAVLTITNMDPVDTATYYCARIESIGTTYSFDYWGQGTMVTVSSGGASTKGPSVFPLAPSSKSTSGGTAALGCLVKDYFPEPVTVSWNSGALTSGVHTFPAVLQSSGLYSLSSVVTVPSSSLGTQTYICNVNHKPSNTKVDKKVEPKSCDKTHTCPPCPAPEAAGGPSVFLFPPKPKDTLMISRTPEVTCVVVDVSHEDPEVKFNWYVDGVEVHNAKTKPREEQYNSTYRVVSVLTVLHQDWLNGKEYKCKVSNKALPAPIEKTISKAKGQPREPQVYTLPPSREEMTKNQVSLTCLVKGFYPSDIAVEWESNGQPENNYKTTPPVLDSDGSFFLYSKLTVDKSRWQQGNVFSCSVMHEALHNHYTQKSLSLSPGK
light: DFQLTQSPSSLSASVGDRVTITCERSSGDIGDSYVSWYQQKPGKAPKNVIYADDQRPSGVPSRFSGSGSGNSASLTISSLQPEDFATYFCQSYDINIDIVFGQGTKVEIKGGGSGGGDIQMTQSPSSLSASVGDRVTITCSASQDISNYLNWYQQKPGKAPKVLIYFTSSLHSGVPSRFSGSGSGTDFTLTISSLQPEDFATYYCQQYSTVPWTFGQGTKVEIKGGGSGRTVAAPSVFIFPPSDEQLKSGTASVVCLLNNFYPREAKVQWKVDNALQSGNSQESVTEQDSKDSTYSLSSTLTLSKADYEKHKVYACEVTHQGLSSPVTKSFNRGEC
B2: CODV004 cross-over DVD-Ig (PR-1565051) (bispecific antibody, human IgG1, kappa, L234A L235A)
heavy: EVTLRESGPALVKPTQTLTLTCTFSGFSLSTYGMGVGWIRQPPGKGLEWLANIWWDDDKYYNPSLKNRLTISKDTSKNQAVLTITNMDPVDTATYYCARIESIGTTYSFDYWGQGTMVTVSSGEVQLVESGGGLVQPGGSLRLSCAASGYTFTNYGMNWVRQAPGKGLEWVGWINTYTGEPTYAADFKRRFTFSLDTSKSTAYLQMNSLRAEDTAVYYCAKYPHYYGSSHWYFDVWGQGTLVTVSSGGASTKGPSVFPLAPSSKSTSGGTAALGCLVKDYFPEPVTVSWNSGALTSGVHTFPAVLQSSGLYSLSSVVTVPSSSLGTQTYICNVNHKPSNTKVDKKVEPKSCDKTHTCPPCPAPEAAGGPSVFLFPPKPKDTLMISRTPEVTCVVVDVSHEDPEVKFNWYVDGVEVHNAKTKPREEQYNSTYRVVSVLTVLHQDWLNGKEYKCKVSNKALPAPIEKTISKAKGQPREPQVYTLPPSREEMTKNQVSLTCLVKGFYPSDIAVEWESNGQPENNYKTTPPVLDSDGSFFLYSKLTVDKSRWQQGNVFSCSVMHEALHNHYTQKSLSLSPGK
light: DIQMTQSPSSLSASVGDRVTITCSASQDISNYLNWYQQKPGKAPKVLIYFTSSLHSGVPSRFSGSGSGTDFTLTISSLQPEDFATYYCQQYSTVPWTFGQGTKVEIKGGGSGGGDFQLTQSPSSLSASVGDRVTITCERSSGDIGDSYVSWYQQKPGKAPKNVIYADDQRPSGVPSRFSGSGSGNSASLTISSLQPEDFATYFCQSYDINIDIVFGQGTKVEIKGGGSGRTVAAPSVFIFPPSDEQLKSGTASVVCLLNNFYPREAKVQWKVDNALQSGNSQESVTEQDSKDSTYSLSSTLTLSKADYEKHKVYACEVTHQGLSSPVTKSFNRGEC
B3: CODV005 cross-over DVD-Ig (PR-1565083) (bispecific antibody, human IgG1, kappa, L234A L235A)
heavy: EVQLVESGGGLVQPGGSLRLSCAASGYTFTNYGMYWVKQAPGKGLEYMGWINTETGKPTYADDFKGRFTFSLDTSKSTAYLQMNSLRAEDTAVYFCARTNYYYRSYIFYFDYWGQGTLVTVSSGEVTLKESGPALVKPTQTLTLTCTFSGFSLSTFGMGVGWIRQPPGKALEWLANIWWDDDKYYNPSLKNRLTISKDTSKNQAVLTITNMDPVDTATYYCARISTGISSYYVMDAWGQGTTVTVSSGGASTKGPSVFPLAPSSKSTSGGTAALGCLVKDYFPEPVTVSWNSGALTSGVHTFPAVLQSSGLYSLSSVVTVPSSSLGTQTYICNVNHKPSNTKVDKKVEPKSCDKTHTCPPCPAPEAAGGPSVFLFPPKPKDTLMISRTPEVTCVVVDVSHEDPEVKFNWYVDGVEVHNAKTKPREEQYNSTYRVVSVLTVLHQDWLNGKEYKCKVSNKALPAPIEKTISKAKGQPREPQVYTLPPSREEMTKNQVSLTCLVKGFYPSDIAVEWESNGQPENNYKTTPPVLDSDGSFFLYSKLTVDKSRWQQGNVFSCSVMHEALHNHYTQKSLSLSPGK
light: DFQLTQSPSSLSASVGDRVTITCERSSGDIGDTYVSWYQQKPGKAPKNVIYGNDQRPSGVPSRFSGSGSGNSATLTISSLQPEDFATYFCQSYDSDIDIVFGQGTKVEIKGGGSGGGDTQLTQSPSSLSASVGDRVTISCRASESVSTHMHWYQQKPGKAPKLLIYGASNLESGVPSRFSGSGSGTDFTLTISSLQPEDFATYFCQQSWNDPFTFGQGTKVEIKGGGSGRTVAAPSVFIFPPSDEQLKSGTASVVCLLNNFYPREAKVQWKVDNALQSGNSQESVTEQDSKDSTYSLSSTLTLSKADYEKHKVYACEVTHQGLSSPVTKSFNRGEC
B4: CODV006 cross-over DVD-Ig (PR-1565084) (bispecific antibody, human IgG1, kappa, L234A L235A)
heavy: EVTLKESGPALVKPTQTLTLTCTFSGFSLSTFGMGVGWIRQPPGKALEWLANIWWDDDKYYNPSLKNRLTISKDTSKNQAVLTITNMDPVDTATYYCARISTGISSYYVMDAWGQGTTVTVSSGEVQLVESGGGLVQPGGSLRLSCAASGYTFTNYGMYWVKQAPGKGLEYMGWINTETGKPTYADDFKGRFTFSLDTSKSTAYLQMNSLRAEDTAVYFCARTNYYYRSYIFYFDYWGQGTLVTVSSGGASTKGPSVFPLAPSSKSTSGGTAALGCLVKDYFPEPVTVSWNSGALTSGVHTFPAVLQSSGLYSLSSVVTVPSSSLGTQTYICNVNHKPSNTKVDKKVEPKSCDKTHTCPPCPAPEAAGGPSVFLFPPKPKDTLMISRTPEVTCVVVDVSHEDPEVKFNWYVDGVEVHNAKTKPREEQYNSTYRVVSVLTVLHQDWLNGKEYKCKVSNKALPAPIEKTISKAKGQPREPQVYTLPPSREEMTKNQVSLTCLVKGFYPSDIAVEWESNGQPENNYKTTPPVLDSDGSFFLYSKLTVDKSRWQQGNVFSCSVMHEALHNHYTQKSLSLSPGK
light: DTQLTQSPSSLSASVGDRVTISCRASESVSTHMHWYQQKPGKAPKLLIYGASNLESGVPSRFSGSGSGTDFTLTISSLQPEDFATYFCQQSWNDPFTFGQGTKVEIKGGGSGGGDFQLTQSPSSLSASVGDRVTITCERSSGDIGDTYVSWYQQKPGKAPKNVIYGNDQRPSGVPSRFSGSGSGNSATLTISSLQPEDFATYFCQSYDSDIDIVFGQGTKVEIKGGGSGRTVAAPSVFIFPPSDEQLKSGTASVVCLLNNFYPREAKVQWKVDNALQSGNSQESVTEQDSKDSTYSLSSTLTLSKADYEKHKVYACEVTHQGLSSPVTKSFNRGEC
B5: CODV007 cross-over DVD-Ig (PR-1565085) (bispecific antibody, human IgG1, kappa, L234A L235A)
heavy: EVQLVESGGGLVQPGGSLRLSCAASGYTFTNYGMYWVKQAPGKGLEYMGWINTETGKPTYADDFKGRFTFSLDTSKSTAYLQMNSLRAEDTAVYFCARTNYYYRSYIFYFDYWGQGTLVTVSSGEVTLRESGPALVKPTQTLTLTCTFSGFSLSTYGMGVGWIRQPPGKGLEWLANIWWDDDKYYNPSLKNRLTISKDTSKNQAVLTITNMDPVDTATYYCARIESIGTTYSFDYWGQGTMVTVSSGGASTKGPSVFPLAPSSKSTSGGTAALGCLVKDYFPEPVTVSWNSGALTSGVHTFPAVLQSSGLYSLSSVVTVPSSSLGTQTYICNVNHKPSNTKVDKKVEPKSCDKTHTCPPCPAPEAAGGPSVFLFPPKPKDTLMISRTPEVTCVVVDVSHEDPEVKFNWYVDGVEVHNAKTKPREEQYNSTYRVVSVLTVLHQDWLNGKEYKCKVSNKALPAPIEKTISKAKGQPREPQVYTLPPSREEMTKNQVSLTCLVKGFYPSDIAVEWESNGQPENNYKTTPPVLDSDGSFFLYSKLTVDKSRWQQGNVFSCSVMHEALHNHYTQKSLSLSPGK
light: DFQLTQSPSSLSASVGDRVTITCERSSGDIGDSYVSWYQQKPGKAPKNVIYADDQRPSGVPSRFSGSGSGNSASLTISSLQPEDFATYFCQSYDINIDIVFGQGTKVEIKGGGSGGGDTQLTQSPSSLSASVGDRVTISCRASESVSTHMHWYQQKPGKAPKLLIYGASNLESGVPSRFSGSGSGTDFTLTISSLQPEDFATYFCQQSWNDPFTFGQGTKVEIKGGGSGRTVAAPSVFIFPPSDEQLKSGTASVVCLLNNFYPREAKVQWKVDNALQSGNSQESVTEQDSKDSTYSLSSTLTLSKADYEKHKVYACEVTHQGLSSPVTKSFNRGEC
B6: CODV008 cross-over DVD-Ig (PR-1565086) (bispecific antibody, human IgG1, kappa, L234A L235A)
heavy: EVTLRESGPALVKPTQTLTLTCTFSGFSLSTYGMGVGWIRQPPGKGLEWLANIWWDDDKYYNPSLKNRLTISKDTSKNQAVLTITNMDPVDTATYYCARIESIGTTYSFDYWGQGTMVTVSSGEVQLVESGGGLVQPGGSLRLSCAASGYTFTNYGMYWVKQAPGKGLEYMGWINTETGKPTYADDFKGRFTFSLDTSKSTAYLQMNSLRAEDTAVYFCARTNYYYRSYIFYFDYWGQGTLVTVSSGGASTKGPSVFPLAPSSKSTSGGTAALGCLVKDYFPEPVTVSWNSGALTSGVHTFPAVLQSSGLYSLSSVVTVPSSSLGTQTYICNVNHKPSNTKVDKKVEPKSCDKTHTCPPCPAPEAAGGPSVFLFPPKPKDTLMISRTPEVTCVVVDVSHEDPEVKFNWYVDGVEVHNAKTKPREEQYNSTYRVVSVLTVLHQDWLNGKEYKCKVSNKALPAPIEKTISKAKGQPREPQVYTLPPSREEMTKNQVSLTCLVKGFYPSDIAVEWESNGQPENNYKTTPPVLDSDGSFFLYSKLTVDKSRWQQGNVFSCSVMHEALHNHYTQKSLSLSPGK
light: DTQLTQSPSSLSASVGDRVTISCRASESVSTHMHWYQQKPGKAPKLLIYGASNLESGVPSRFSGSGSGTDFTLTISSLQPEDFATYFCQQSWNDPFTFGQGTKVEIKGGGSGGGDFQLTQSPSSLSASVGDRVTITCERSSGDIGDSYVSWYQQKPGKAPKNVIYADDQRPSGVPSRFSGSGSGNSASLTISSLQPEDFATYFCQSYDINIDIVFGQGTKVEIKGGGSGRTVAAPSVFIFPPSDEQLKSGTASVVCLLNNFYPREAKVQWKVDNALQSGNSQESVTEQDSKDSTYSLSSTLTLSKADYEKHKVYACEVTHQGLSSPVTKSFNRGEC
B7: 4G8.3-GS(11)-9E8.4 (g) DVD-Ig (PR-1572103) (bispecific antibody, human IgG1, kappa, L234A L235A)
heavy: EVQLVQSGSELKKPGASVKVSCKASGYTFTNYGMYWVRQAPGQGLEWMGWINTETGKPTYADDFKGRFVFSLDTSVSTAYLQISSLKAEDTAVYYCARTNYYYRSYIFYFDYWGQGTMVTVSSGGGGSGGGGSEVTLRESGPALVKPTQTLTLTCTFSGFSLSTYGMGVGWIRQPPGKALEWLANIWWDDDKYYNPSLKNRLTISKDTSKNQVVLTMTNMDPVDTATYYCARIESIGTTYSFDYWGQGTMVTVSSASTKGPSVFPLAPSSKSTSGGTAALGCLVKDYFPEPVTVSWNSGALTSGVHTFPAVLQSSGLYSLSSVVTVPSSSLGTQTYICNVNHKPSNTKVDKKVEPKSCDKTHTCPPCPAPEAAGGPSVFLFPPKPKDTLMISRTPEVTCVVVDVSHEDPEVKFNWYVDGVEVHNAKTKPREEQYNSTYRVVSVLTVLHQDWLNGKEYKCKVSNKALPAPIEKTISKAKGQPREPQVYTLPPSREEMTKNQVSLTCLVKGFYPSDIAVEWESNGQPENNYKTTPPVLDSDGSFFLYSKLTVDKSRWQQGNVFSCSVMHEALHNAYTQKSLSLSPGK
light: DTVLTQSPATLSLSPGERATLSCRASESVSTHMHWYQQKPGQAPRLLIYGASNLESGVPARFSGSGSGTDFTLTISSLEPEDFAVYFCQQSWNDPFTFGQGTKLEIKRGGSGGGGSGGEFVLTQSPGTLSLSPGERATLSCERSSGDIGDSYVSWYQQKPGQAPRLVIYADDQRPSGIPDRFSGSGSGTDFTLTISRLEPEDFAVYYCQSYDINIDIVFGGGTKVEIKRTVAAPSVFIFPPSDEQLKSGTASVVCLLNNFYPREAKVQWKVDNALQSGNSQESVTEQDSKDSTYSLSSTLTLSKADYEKHKVYACEVTHQGLSSPVTKSFNRGEC
B8: 4G8.3-GS(noR)-9E8.4 (g) DVD-Ig (PR-1572104) (bispecific antibody, human IgG1, kappa, L234A L235A)
heavy: EVQLVQSGSELKKPGASVKVSCKASGYTFTNYGMYWVRQAPGQGLEWMGWINTETGKPTYADDFKGRFVFSLDTSVSTAYLQISSLKAEDTAVYYCARTNYYYRSYIFYFDYWGQGTMVTVSSGGGGSGGGGSEVTLRESGPALVKPTQTLTLTCTFSGFSLSTYGMGVGWIRQPPGKALEWLANIWWDDDKYYNPSLKNRLTISKDTSKNQVVLTMTNMDPVDTATYYCARIESIGTTYSFDYWGQGTMVTVSSASTKGPSVFPLAPSSKSTSGGTAALGCLVKDYFPEPVTVSWNSGALTSGVHTFPAVLQSSGLYSLSSVVTVPSSSLGTQTYICNVNHKPSNTKVDKKVEPKSCDKTHTCPPCPAPEAAGGPSVFLFPPKPKDTLMISRTPEVTCVVVDVSHEDPEVKFNWYVDGVEVHNAKTKPREEQYNSTYRVVSVLTVLHQDWLNGKEYKCKVSNKALPAPIEKTISKAKGQPREPQVYTLPPSREEMTKNQVSLTCLVKGFYPSDIAVEWESNGQPENNYKTTPPVLDSDGSFFLYSKLTVDKSRWQQGNVFSCSVMHEALHNAYTQKSLSLSPGK
light: DTVLTQSPATLSLSPGERATLSCRASESVSTHMHWYQQKPGQAPRLLIYGASNLESGVPARFSGSGSGTDFTLTISSLEPEDFAVYFCQQSWNDPFTFGQGTKLEIKGGSGGGGSGGEFVLTQSPGTLSLSPGERATLSCERSSGDIGDSYVSWYQQKPGQAPRLVIYADDQRPSGIPDRFSGSGSGTDFTLTISRLEPEDFAVYYCQSYDINIDIVFGGGTKVEIKRTVAAPSVFIFPPSDEQLKSGTASVVCLLNNFYPREAKVQWKVDNALQSGNSQESVTEQDSKDSTYSLSSTLTLSKADYEKHKVYACEVTHQGLSSPVTKSFNRGEC

Target: recombinant human PDGF-BB (human, UniProt P01127 82-190)
Assay: cell-based or functional assay

Sequence of recombinant human PDGF-BB (P01127 82-190 limits assumed): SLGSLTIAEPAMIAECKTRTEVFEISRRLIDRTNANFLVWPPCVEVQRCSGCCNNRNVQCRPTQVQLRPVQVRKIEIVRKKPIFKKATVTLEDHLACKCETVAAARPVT

Row | Binder | NIH-3T3 hPDGF-BB Potency IC50
1 | B1 | > 5 nM
2 | B2 | > 5 nM
3 | B3 | > 5 nM
4 | B4 | > 5 nM
5 | B5 | > 5 nM
6 | B6 | > 5 nM
7 | B7 | 0.298 nM
8 | B8 | 0.095 nM
